Results: PMC5415192, “Zebrafish GDNF and its co-receptor GFRα1 activate the human RET receptor and promote the survival of dopaminergic neurons in vitro” (PLoS ONE, 2017)

B1: Zebrafish (Danio rerio) RET extracellular domain (residues 22-626) (domain or fragment, UniProt A8E7C6 22-626, looked up)
chain: GLYFPQRLYTENIYVGQQQGSPLLQVISMREFPTERPYFFLCSHRDAFTSWFHIDEASGVLYLNKTLEWSDFSSLRSGSVRSPKDLTLKVGVSSTPPMKVMCTILPTVEVKLSFINDTAPSCGQVELSTLCFPEKISNPHITENREPGALRQLRRFTHMSICPNYTISYGVVAGSSVPFAVDDSTSELVVTAQVDREEKEVYHLDIVCMVRTERNLEEVFRSLHVNIYDEDDNSPYVNGTDTEDVLVEFDRSEGTVFGTLFVYDRDTTPVYPTNQVQNKLVGTLMTNDSWIKNNFAIEHKFREEKAIFGNVRGTVHEYKLKLSQNLSVTEQRSFLLGYLVNDTTFPGPEGTVLLHFNVTVLPVPIRFSNVTYSFTVSQKATTYSQIGKVCVENCQKFKGIDVTYQLEIVDRNITAEAQSCYWAVSLAQNPNDNTGVLYVNDTKVLRRPECQELEYVVIAQEQQNKLQAKTQLTVSFQGEADSLKTDEPRFPACAEKRQRGDCEATRGLGAPTGRCQWRQGRDKGISKRYSTCSPNLGTCPDGYCDAIESKNISICPQDCSSEAIIGGYERDLYGIKAGHGTCYCFEGKCFCERDEPEDDICNDMC
notes: RET, Danio rerio, UniProt A8E7C6, extracellular domain, residues 22-626; cloned from zRET-CS2-MT+; The protein is glycosylated; also called zRET^ecd; zRET; source: Hi5 insect cells, baculovirus, secreted

Experiments:
[1] = target: the molecule itself; assay: SEC + native gel or EMSA; affinity-purified zRET^ecd separated by SEC into two peaks; fractions and pools run on BN-PAGE and SDS-PAGE
[2] = target: B1; assay: BLI; BLItz; His-tagged zGFRα1 (58 μM, 4 μl) immobilised on Ni-NTA tips; pre-mixed zRET^ecd and zGDNF at 0.3-44 μM; 20 mM HEPES pH 8, 150 mM NaCl, 1 mM CaCl2; plateau values fitted as Scatchard plots; triplicate; details: both partners purified
[3] = target: the molecule itself; assay: SDS-PAGE with and without DTT; purified zGDNF on a Coomassie-stained gel, with 1 mM DTT or without

B1
stoichiometry N [1]: 2

B2: Complex of His-tagged zebrafish GFRα1 (residues 31-351) and zebrafish GDNF (complex, zebrafish (Danio rerio))
chain 1: DCVKANELCLKEPGCSSKYRTMRQCVAGRESNFSMATGMEAKDECRLVLDALKQSPLYNCRCKRGMKKEKNCLRIYWGIYQHLQGNDLLEDSPYEPVNSRLSDIFRLAPIYSGEPALAKENNCLNAAKACNLNDTCKKYRSAYISPCTSRVSTAEVCNKRKCHKALRQFFDKVPPKHSYGMLYCSCPLGDQSACSERRRQTIVPACSYEDKERPNCLTLQVSCKTNYICRSRLADFFTNCQPEPLSLSGCLKENYADCLLSYSGLIGTVMTPNYLRSPKISVSPFCDCSSSGNSKEECDRFTEFFTDNACLRNAIQAFGNG
chain 2: SSDVEPQMKRDRVRQKAAANTEKSGGRGRGERKRSRGRARSRDDRVKGQGRGCLLKEIHLNVTDLDLGYRTKEELIFRYCSGPCHDAETNYDKILNNLTHNKKLDKDTPSRTCCRPIAFDDDISFLDDSLEYHTLKKHSAKKCACV
notes: GDNF family receptor alpha-1, Danio rerio, UniProt Q98TT9, residues 31-351, lacking the GPI-anchor; Glial cell line-derived neurotrophic factor, Danio rerio, UniProt Q98TU0, mature GDNF, residues 90-236; as m6; In the BLI experiment His-tagged zGFRα1 was held on the Ni-NTA tip, and zGDNF was supplied pre-mixed with zRET^ecd; The stoichiometry of the complex was not measured here; also called …
Kd [2]: 5.9 ± 1.5 µM

B3: Zebrafish (Danio rerio) mature GDNF (residues 90-236) (ligand, UniProt Q98TU0 90-235, looked up)
chain: SSDVEPQMKRDRVRQKAAANTEKSGGRGRGERKRSRGRARSRDDRVKGQGRGCLLKEIHLNVTDLDLGYRTKEELIFRYCSGPCHDAETNYDKILNNLTHNKKLDKDTPSRTCCRPIAFDDDISFLDDSLEYHTLKKHSAKKCACV
notes: Glial cell line-derived neurotrophic factor, Danio rerio, UniProt Q98TU0, mature GDNF, residues 90-236; 'zGDNF' is the construct in the original pK503.9 vector (Flag-tag only); Whether its Flag tag was removed is not clear; It appears as a mixture of a DTT-sensitive dimer and monomer, and it is glycosylated; also called zGDNF; zebrafish GDNF; source: Hi5 insect cells, baculovirus, secreted; …
stoichiometry N [3]: 2
